Laboratory results as given in publication PMC11714219.

B1: Estrogen receptor alpha, full length, ECFP-tagged, as in the ER βα FL biosensors with the linker [not stated] / Estrogen receptor beta (ER β), full length, mNeonGreen-tagged, as in the ER βα FL FRET biosensor [not stated] (parent)
chain 1: MTMTLHTKASGMALLHQIQGNELEPLNRPQLKIPLERPLGEVYLDSSKPAVYNYPEGAAYEFNAAAAANAQVYGQTGLPYGPGSEAAAFGSNGLGGFPPLNSVSPSPLMLLHPPPQLSPFLQPHGQQVPYYLENEPSGYTVREAGPPAFYRPNSDNRRQGGRERLASTNDKGSMAMESAKETRYCAVCNDYASGYHYGVWSCEGCKAFFKRSIQGHNDYMCPATNQCTIDKNRRKSCQACRLRKCYEVGMMKGGIRKDRRGGRMLKHKRQRDDGEGRGEVGSAGDMRAANLWPSPLMIKRSKKNSLALSLTADQMVSALLDAEPPILYSEYDPTRPFSEASMMGLLTNLADRELVHMINWAKRVPGFVDLTLHDQVHLLECAWLEILMIGLVWRSMEHPGKLLFAPNLLLDRNQGKCVEGMVEIFDMLLATSSRFRMMNLQGEEFVCLKSIILLNSGVYTFLSSTLKSLEEKDHIHRVLDKITDTLIHLMAKAGLTLQQQHQRLAQLLLILSHIRHMSNKGMEHLYSMKCKNVVPLYDLLLEMLDAHRLHAPTSRGGASVEETDQSHLATAGSTSSHSLQKYYITGEAEGFPATV
chain 2: MDIKNSPSSLNSPSSYNCSQSILPLEHGSIYIPSSYVDSHHEYPAMTFYSPAVMNYSIPSNVTNLEGGPGRQTTSPNVLWPTPGHLSPLVVHRQLSHLYAEPQKSPWCEARSLEHTLPVNRETLKRKVSGNRCASPVTGPGSKRDAHFCAVCSDYASGYHYGVWSCEGCKAFFKRSIQGHNDYICPATNQCTIDKNRRKSCQACRLRKCYEVGMVKCGSRRERCGYRLVRRQRSADEQLHCAGKAKRSGGHAPRVRELLLDALSPEQLVLTLLEAEPPHVLISRPSAPFTEASMMMSLTKLADKELVHMISWAKKIPGFVELSLFDQVRLLESCWMEVLMMGLMWRSIDHPGKLIFAPDLVLDRDEGKCVEGILEIFDMLLATTSRFRELKLQHKEYLCVKAMILLNSSMYPLVTATQDADSSRKLAHLLNAVTDALVWVIAKSGISSQQQSMRLANLLMLLSHVRHASNKGMEHLLNMKCKNVVPVYDLLLEMLNAHVLRGCKSSITGSECSPAEDSKSKEGSQNPQSQ

Variants of: B1
Assay: live-cell FRET biosensor imaging (ER βα heterodimerization, FRET/ECFP emission ratio)
Details: with Estrogen receptor beta (ER β), 1 µM 17β-estradiol, value read at the end of the time course (30 min after E2), α mutant n = 12, WT n = 24, read off a plot, scale: R/R0

response | Variant
1.07 | chain 1 L507R
